Test results as given in patent US20080207540, “Method For the Identification of Compounds Modulating Reverse Transport of Cholesterol” (Genfit, published 2008).

What was measured:
LRH-1 (hLRH-1, NR5A2) [1] = target: T1, LRH-1 (hLRH-1, NR5A2) (Homo sapiens, UniProt O00482 O00482:1-541); assay: EMSA; no complex; conditions: tags: none stated; TNT-T7 rabbit reticulocyte lysate, vector pCI-hLRH-1; label: 32P
Procedure: (§1) 2 μl of rabbit reticulocyte lysate programmed by hLRH-1 were incubated for 15 minutes at room temperature in a final volume of 20 μl of buffer containing 10 mM HEPES, 2.5 mM MgCl₂, 10% glycerol, 2.5 mg/ml BSA, 50 mM NaCl and 0.5 mM DTT with 2.5 μg of polydl-dC and 1 μg of herring sperm DNA in the presence of the labelled double-stranded oligonucleotides (0.5 ng). The complexes were then separated by non-denaturing gel electrophoresis in TBE 0.25X buffer.
(§2) In contrast, no complex was detected in the presence of labelled double-stranded oligonucleotide corresponding to the mutated response element (hCyp7a mut). […] On the other hand, a specific LRH-1/DNA complex formed with a labelled double-stranded oligonucleotide corresponding to fragment −144/−122 (LRHRE_ApoA1_h_{—}7) of the human apo AI gene promoter. Said fragment straddles regions B and C of the human apo AI promoter and contains, on the antisense strand, the sequence TCAAGGATC similar to the consensus sequence TCAAGGTCA of an LRH-1 response element.

LRH-1 (hLRH-1, NR5A2) [2] = target: T1, LRH-1 (hLRH-1, NR5A2); assay: EMSA; 2.5 mM MgCl2, 50 mM NaCl, room temperature; higher affinity than apo AI -144/-122 by competition (Example 4); conditions: tags: none stated; TNT-T7 rabbit reticulocyte lysate, vector pCI-hLRH-1; label: 32P
Procedure: as §1, §2

FXR [3] = target: T2, FXR (UniProt Q96RI1 Q96RI1:1-486); assay: EMSA; no complex; conditions: tags: none stated; TNT-T7 rabbit reticulocyte lysate, vector pCDNA3-FXR; label: 32P
T2 sequence: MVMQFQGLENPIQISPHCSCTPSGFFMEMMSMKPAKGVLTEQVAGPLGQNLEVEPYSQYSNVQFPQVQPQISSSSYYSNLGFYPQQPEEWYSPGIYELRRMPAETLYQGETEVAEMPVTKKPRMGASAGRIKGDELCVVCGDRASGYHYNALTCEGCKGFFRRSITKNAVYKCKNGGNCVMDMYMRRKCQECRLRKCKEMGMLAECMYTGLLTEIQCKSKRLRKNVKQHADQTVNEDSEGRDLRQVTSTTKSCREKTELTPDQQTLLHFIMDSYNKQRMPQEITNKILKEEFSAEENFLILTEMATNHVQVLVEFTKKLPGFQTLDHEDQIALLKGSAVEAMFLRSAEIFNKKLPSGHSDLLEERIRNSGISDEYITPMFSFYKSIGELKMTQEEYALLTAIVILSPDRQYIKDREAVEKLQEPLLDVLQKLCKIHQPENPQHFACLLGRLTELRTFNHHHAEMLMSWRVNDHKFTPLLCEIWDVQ

LRH-1 (hLRH-1, NR5A2) [4] = target: T1, LRH-1 (hLRH-1, NR5A2); assay: EMSA; specific complex; low affinity site, as competitor only partially displaces Cyp7a probe (FIG. 4A); conditions: tags: none stated; TNT-T7 rabbit reticulocyte lysate, vector pCI-hLRH-1; label: 32P
Procedure: as §1, §2

LRH-1 (hLRH-1, NR5A2) [5] = target: T1, LRH-1 (hLRH-1, NR5A2); assay: EMSA; no complex; also no displacement as competitor (FIG. 4B); conditions: tags: none stated; TNT-T7 rabbit reticulocyte lysate, vector pCI-hLRH-1; label: 32P
Procedure: as §1, §2

LRH-1 (hLRH-1, NR5A2) [6] = target: T1, LRH-1 (hLRH-1, NR5A2); assay: EMSA; FXR site mutation does not affect LRH-1 binding; conditions: tags: none stated; TNT-T7 rabbit reticulocyte lysate, vector pCI-hLRH-1; label: 32P
FXR [7] = target: T2, FXR; assay: EMSA; complex lost; conditions: tags: none stated; TNT-T7 rabbit reticulocyte lysate, vector pCDNA3-FXR; label: 32P
LRH-1 (hLRH-1, NR5A2) [8] = target: T1, LRH-1 (hLRH-1, NR5A2); assay: EMSA; no complex; no displacement as competitor (FIG. 4A); conditions: tags: none stated; TNT-T7 rabbit reticulocyte lysate, vector pCI-hLRH-1; label: 32P
Procedure: as §1, §2

LRH-1 (hLRH-1, NR5A2) [9] = target: T1, LRH-1 (hLRH-1, NR5A2); assay: EMSA; specific complex; conditions: tags: none stated; TNT-T7 rabbit reticulocyte lysate, vector pCI-hLRH-1; label: 32P
FXR [10] = target: T2, FXR; assay: EMSA; specific complex; conditions: tags: none stated; TNT-T7 rabbit reticulocyte lysate, vector pCDNA3-FXR; label: 32P

T1 sequence (O00482 whole entry, one chain of several): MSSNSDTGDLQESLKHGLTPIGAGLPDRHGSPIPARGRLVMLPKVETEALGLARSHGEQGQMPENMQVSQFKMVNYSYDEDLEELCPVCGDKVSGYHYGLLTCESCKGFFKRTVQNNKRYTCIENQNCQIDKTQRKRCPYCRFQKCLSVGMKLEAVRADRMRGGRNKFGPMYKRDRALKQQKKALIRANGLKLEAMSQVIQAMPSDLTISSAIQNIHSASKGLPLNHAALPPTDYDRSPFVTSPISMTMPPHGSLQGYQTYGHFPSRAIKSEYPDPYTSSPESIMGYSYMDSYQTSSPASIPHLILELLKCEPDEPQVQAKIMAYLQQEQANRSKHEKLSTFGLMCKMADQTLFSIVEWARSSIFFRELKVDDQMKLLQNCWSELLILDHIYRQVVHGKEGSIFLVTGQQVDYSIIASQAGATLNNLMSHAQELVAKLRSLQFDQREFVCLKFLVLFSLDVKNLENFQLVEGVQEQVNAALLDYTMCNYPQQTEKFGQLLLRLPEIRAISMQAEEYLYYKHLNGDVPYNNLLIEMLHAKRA

B1: LRHRE_ApoA1_h_6 (-178/-145) (dsDNA)
DNA 1: GATCCTTGCCCACTCTATTTGCCCAGCCCCAA
DNA 2: GATCTTGGGGCTGGGCAAATAGAGTGGGCAAG
Does B1 bind (LRH-1 (hLRH-1, NR5A2) [1])?
Result: no binding

B2: LRHRE_ApoA1_h_8 (-180/-158) (dsDNA)
DNA 1: GATCCAGCTTGCTGTTTGCCCACTCTATA
DNA 2: GATCTATAGAGTGGGCAAACAGCAAGCTG
Does B2 bind (LRH-1 (hLRH-1, NR5A2) [1])?
Result: no binding

B3: hCyp7a wt (dsDNA)
DNA 1: GATCTCTTAGTTCAAGGCCAGTTAG
DNA 2: GATCCTAACTGGCCTTGAACTAAGA
Does B3 bind (LRH-1 (hLRH-1, NR5A2) [2])?
Result: binds

B4: LRHRE_ApoA1_h_7 (-144/-122) (dsDNA)
DNA 1: GATCCGGGACAGAGCTGATCCTTGAACTA
DNA 2: GATCTAGTTCAAGGATCAGCTCTGTCCCG
Does B4 bind (FXR [3])?
Result: no binding

Does B4 bind (LRH-1 (hLRH-1, NR5A2) [4])?
Result: binds

B5: hCyp7a mut (dsDNA)
DNA 1: GATCTCTTAGTTCAATTCCAGTTAG
DNA 2: GATCCTAACTGGAATTGAACTAAGA
Does B5 bind (LRH-1 (hLRH-1, NR5A2) [5])?
Result: no binding

B6: FXRRE_ApoA1_h_1_mut (dsDNA)
DNA 1: CAGAGCTGATCCTTGAAGTGTTAAGTT
DNA 2: AACTTAACACTTCAAGGATCAGCTCTG
Does B6 bind (LRH-1 (hLRH-1, NR5A2) [6])?
Result: binds

Does B6 bind (FXR [7])?
Result: no binding

B7: LRHRE_ApoA1 mut (dsDNA)
DNA 1: GATCCGGGACAGAGCTGATTGTTGAACTA
DNA 2: GATCTAGTTCAACAATCAGCTCTGTCCCG
What does the source list for B7?
binding result (FXR [3]): no binding; binding result (LRH-1 (hLRH-1, NR5A2) [8]): no binding

B8: LRHRE_ApoA1_h_5 (-191/-171) (dsDNA)
DNA 1: GATCCGCAGCCCCCGCAGCTTGCTGTA
DNA 2: GATCTACAGCAAGCTGCGGGGGCTGCG
Does B8 bind (LRH-1 (hLRH-1, NR5A2) [1])?
Result: no binding

B9: FXRRE_ApoA1_h_1 (dsDNA)
DNA 1: CAGAGCTGATCCTTGAACTCTTAAGTT
DNA 2: AACTTAAGAGTTCAAGGATCAGCTCTG
Does B9 bind (LRH-1 (hLRH-1, NR5A2) [9])?
Result: binds

Does B9 bind (FXR [10])?
Result: binds
